Results: patent US20250108100A1, “C-TERMINAL FRAGMENT OF APOLIPOPROTEIN E AND APPLICATION THEREOF IN INHIBITING y-SECRETASE ACTIVITY” (SYNPHATEC (SHANGHAI) BIOPHARMACEUTICAL TECHNOLOGY CO., LTD., priority 2022, published 2025)

What was measured:
mouse APP (mAPP) = assay: α-CTF produced by mouse APP (mAPP) expressed in HEK 293T cells; assay type: cell-based; conditions: HEK 293T cells transiently expressing mAPP
Description: Plasmids were transfected in HEK 293T or N2A cells for 36-48 hours and then lysed in cell lysis buffer [10% 1M tris-HCl (pH=6.8), 4% SDS, 20% glycerol, 0.01% bromophenol blue]. Lysates were shaken at room temperature for 10 min, then boiled for 10 min, and centrifuged at 12,000×g for 10 min. Proteins were run on 8% or 12% Tris-glycine SDS-PAGE and transferred to PVDF membranes (Life Technologies). Samples were incubated overnight at 4° C. with primary antibody diluted in 5% BSA buffer (in 1×TBST). After washing 3 times with 1×TBST, they were incubated with secondary antibody diluted in 5% BSA buffer (in 1×TBST) for 2 hours at room temperature. Finally, after washing 3 times with 1×TBST, the signal was detected by ECL Western blotting substrate (Solarbio, PE0010).

[1] = test system: primary cultured mouse hippocampal or cortical neurons; assay: Endogenous Aβ40 in primary cultured mouse cortical or hippocampal neurons (lentivirus, ELISA); assay type: cell-based; conditions: for endogenously produced Aβ40: lentivirus
Description: Primary cultured neurons were derived from the cortex or hippocampus of 16-day embryonic mice. The mouse cortex or hippocampus was obtained under a stereoscope, and was digested at 37° C. for 10 minutes with 20 U/ml papain (Worthington Company). After digestion, the neurons that exist in single-cell form were seeded with 100,000 neurons per well (24-well plate); the neurons were cultured in the neuron culture medium (Neurobasal medium; ThermoFisher Company) containing 2% B27 (ThermoFisher Company) and 1% penicillin/streptomycin; the fresh culture medium was changed once a week.
The experiment was performed according to the standard procedure in the ELISA analysis kit of Invitrogen Company. • a) The target protein was expressed in HEK 293T cell line. Cells were subcultured one day before transfection, and transfection was performed when the degree of cell adhesion reached 70%-80%. The transfection reagent was lipofectamine2000 (ThermoFisher). • b) 4-6 hours post transfection, medium were replaced with fresh cell culture medium. • c) 36-48 hours post transfection, the cell culture medium was collected, and then the ELISA process was performed or the cell culture medium was frozen in a −80° C. refrigerator. • d) 50 μl of standard samples and experimental samples were added to each well of the 96-well plate. • e) 50 μl of human-derived Aβ40 or Aβ42 or mouse-derived Aβ40 detection antibody was added to each well of the 96-well plate. • f) The above samples were shaken gently and placed at room temperature for 3 hours. • g) The liquid in the well were removed, and the plate was washed 4 times with 1× wash buffer. • h) 100 μl of the buffer containing 1× anti-Rabbit IgG HRP was added. • i) The plate was shaken gently and placed at room temperature for […]. • j) The liquid in the well were removed, and the well was washed 4 times with 1× wash buffer. • k) 100 μl of Stabilized Chromogen was added to each well, and the plate was placed in the dark for 30 minutes at room temperature. • l) 100 μl of Stop Solution was added to each well. • m) The absorbance at 450 nm was measured with a microplate reader. 2.4 qRT-PCR
• a) Construction of lentivirus expression plasmids, lentivirus-GFP and lentivirus-ApoE CT, which can be specifically expressed in neurons. • b) The lentivirus vectors were cotransfected with coat protein vectors (PSPAX2 and PMD2G) in HEK 293T cell line. Cells were subcultured one day before transfection, and transfection was performed when the degree of cell adhesion reached 70%-80%. […]
48 hours after transfection of HEK 293T cells and N2A cells, or 4.5 days after lentivirus infection of neurons, media and lysates were collected. Aβ40 and Aβ42 in the culture medium and cell lysates were detected by an Aβ ELISA kit as indicated in the protocol. […]

B1: ApoE CT: C-terminal fragment of ApoE, positions 216-299 of SEQ ID NO: 12; SEQ ID NO: 33 (protein)
chain: ARMEEMGSRTRDRLDEVKEQVAEVRAKLEEQAQQIRLQAEAFQARLKSWFEPLVEDMQRQWAGLVEKVQAAVGTSAAPVPSDNH
Q: With B1 as the molecule, how does the “α-CTF levels from mouse APP” value (mouse APP (mAPP)) read?
A: increases α-CTF levels

Q: And the “reduction in endogenous Aβ40” value ([1]; mouse cortical and hippocampal neurons, lentiviral infection, vs GFP controls)?
A: 30%

Q: And the “endogenously produced Aβ40” value ([1]; primary cultured mouse cortical neurons)?
A: about 73 % of the control group

Q: And the “endogenously produced Aβ40” value ([1]; primary cultured mouse hippocampal neurons)?
A: about 71 % of the control group

Q: And the “endogenously produced Aβ40” value ([1]; primary cultured mouse neurons, vs GFP control)?
A: can reduce the endogenous production of Aβ40
